The target in assay [1] is T1, translation elongation factor eEF1Bβ, full-length (human), P29692.
T1 chain: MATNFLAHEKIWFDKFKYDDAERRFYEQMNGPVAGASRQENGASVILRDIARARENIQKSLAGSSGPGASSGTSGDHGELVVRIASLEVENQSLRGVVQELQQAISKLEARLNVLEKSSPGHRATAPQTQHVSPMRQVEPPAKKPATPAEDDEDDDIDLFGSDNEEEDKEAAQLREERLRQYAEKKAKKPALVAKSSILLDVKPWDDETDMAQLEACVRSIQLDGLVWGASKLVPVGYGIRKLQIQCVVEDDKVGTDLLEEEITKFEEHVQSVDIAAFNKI
The assay is described as follows: AUC. Conditions: remark: other sources report otherwise.

Assay [2] deals with T1, translation elongation factor eEF1Bβ, …. In words: AUC. Conditions: remark: other sources report otherwise.
The target is the same in assay [3]. The assay is described as follows: AUC. Conditions: remark: other sources report otherwise.
Assay [4] has as its target eEF1B(αβγ)3 complex, reconstituted from full-length eEF1Bα, eEF1Bβ and eEF1Bγ (human, UniProt P24534 1-225; P29692 1-281; P26641 1-437). The assay is described as follows: native gel or EMSA.

Chain of eEF1B(αβγ)3 complex, reconstituted from full-length eEF1Bα, eEF1Bβ and eEF1Bγ (P24534 whole entry, chain 1 of 2): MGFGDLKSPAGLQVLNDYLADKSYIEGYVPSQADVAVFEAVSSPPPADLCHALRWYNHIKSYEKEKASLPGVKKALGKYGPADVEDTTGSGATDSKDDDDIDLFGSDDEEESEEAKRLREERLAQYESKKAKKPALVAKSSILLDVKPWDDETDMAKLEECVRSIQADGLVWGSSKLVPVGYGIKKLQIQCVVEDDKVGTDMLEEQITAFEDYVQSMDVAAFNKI
Chain of eEF1B(αβγ)3 complex, reconstituted from full-length eEF1Bα, eEF1Bβ and eEF1Bγ (P26641 whole entry, chain 3 of 2): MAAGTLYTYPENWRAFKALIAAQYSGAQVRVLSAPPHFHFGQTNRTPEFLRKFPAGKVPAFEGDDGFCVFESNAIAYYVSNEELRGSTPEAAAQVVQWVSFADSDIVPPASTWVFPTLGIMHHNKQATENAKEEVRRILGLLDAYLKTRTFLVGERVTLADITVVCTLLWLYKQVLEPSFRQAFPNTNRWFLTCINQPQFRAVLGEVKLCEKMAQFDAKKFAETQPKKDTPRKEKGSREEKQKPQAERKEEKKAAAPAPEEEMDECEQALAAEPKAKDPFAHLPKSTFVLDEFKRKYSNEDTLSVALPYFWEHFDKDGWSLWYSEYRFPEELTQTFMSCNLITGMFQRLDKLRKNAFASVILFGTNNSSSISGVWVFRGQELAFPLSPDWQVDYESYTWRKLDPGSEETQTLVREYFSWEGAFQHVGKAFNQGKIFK

B1: translation elongation factor eEF1Bβ, full-length, P29692 1-281 (natural protein)
chain: MATNFLAHEKIWFDKFKYDDAERRFYEQMNGPVAGASRQENGASVILRDIARARENIQKSLAGSSGPGASSGTSGDHGELVVRIASLEVENQSLRGVVQELQQAISKLEARLNVLEKSSPGHRATAPQTQHVSPMRQVEPPAKKPATPAEDDEDDDIDLFGSDNEEEDKEAAQLREERLRQYAEKKAKKPALVAKSSILLDVKPWDDETDMAQLEACVRSIQLDGLVWGASKLVPVGYGIRKLQIQCVVEDDKVGTDLLEEEITKFEEHVQSVDIAAFNKI
The stoichiometry N is a count of units in the complex or per binding partner. On to B1, for which the stoichiometry N in assay [1], in assay [2] and in assay [3] was 3 each time.

B2: translation elongation factor eEF1A2 (natural protein, UniProt Q05639 1-463, looked up)
chain: MGKEKTHINIVVIGHVDSGKSTTTGHLIYKCGGIDKRTIEKFEKEAAEMGKGSFKYAWVLDKLKAERERGITIDISLWKFETTKYYITIIDAPGHRDFIKNMITGTSQADCAVLIVAAGVGEFEAGISKNGQTREHALLAYTLGVKQLIVGVNKMDSTEPAYSEKRYDEIVKEVSAYIKKIGYNPATVPFVPISGWHGDNMLEPSPNMPWFKGWKVERKEGNASGVSLLEALDTILPPTRPTDKPLRLPLQDVYKIGGIGTVPVGRVETGILRPGMVVTFAPVNITTEVKSVEMHHEALSEALPGDNVGFNVKNVSVKDIRRGNVCGDSKSDPPQEAAQFTSQVIILNHPGQISAGYSPVIDCHTAHIACKFAELKEKIDRRSGKKLEDNPKSLKSGDAAIVEMVPGKPMCVESFSQYPPLGRFAVRDMRQTVAVGVIKNVEKKSGGAGKVTKSAQKAQKAGK
As for B2, the “stoichiometry N” value in assay [4] stood at 6.

For the origin of these results see PMC9458455 (Nucleic Acids Research, 2022).
